Data on eleven molecules can be found in article PMC11574045, “A cofactor-induced repressive type of transcription factor condensation can be induced by synthetic peptides to suppress tumorigenesis” (The EMBO Journal, 2024).

The test system of this test is HEK293FT cells transfected with TF library. The test is described as follows: Screening of TF condensates based on fluorescent puncta. It counts as cell-based. Conditions: Figure 1B numerical data; TF library screen, one value per transcriptional factor. An outline of the steps: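 TF plasmids (final 1.6 μg/ml) reverse-transfected with PEI (4.8 μg/ml) into HEK293FT cells; after 60 h, cells cultured ±glucose for 12 h, fixed in 4% PFA and immunostained for Flag or GAL4 tags with Alexa 488 secondaries. Puncta scored by automated imaging of 50 random fields per well.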

B1: TBX19 (protein, UniProt Q99ME7 1-446, looked up)
T-box transcription factor …: MSELATQKAGEGTVSRLLNVVESELQAGREKGDPTEKQLQIILEDAPLWQRFKEVTNEMIVTKNGRRMFPVLKISVTGLDPNAMYSLLLDFVRTDSHRWKYVNGEWVPAGKPEVSSHSCVYIHPDSPNFGAHWMKAPISFSKVKLTNKLNGGGQIMLNSLHKYEPQVHIVRVGGAHRMVMNCSFPETQFIAVTAYQNEEITALKIKYNPFAKAFLDAKERNHLKDVPEAISESQHVTYSHLGGWILSNPDGVCTAANSNYQYATPLPLPAPHTHHGCEHYAGLRGHRQAPYPSAYMHRNHSPSVNLIESSSNNLQVFSGPDSWTSLSSTPHASILSVPHSNGPINPGPSPYPCLWTISNGGGGPVASGSEVHASTSGTILLGNPAVTSPSSLLPTQATTSAGVEVLGEPSLTSIAVSTWTAVASHPLPGWGGPGGAGRHSSSSLDS
As to B1, the “Z score of condensed fraction” value is on record as 1.015.

B2: SUV39H1 (protein, UniProt O43463 1-412, looked up)
Histone-lysine …: MAENLKGCSVCCKSSWNQLQDLCRLAKLSCPALGISKRNLYDFEVEYLCDYKKIREQEYYLVKWRGYPDSESTWEPRQNLKCVRILKQFHKDLERELLRRHHRSKTPRHLDPSLANYLVQKAKQRRALRRWEQELNAKRSHLGRITVENEVDLDGPPRAFVYINEYRVGEGITLNQVAVGCECQDCLWAPTGGCCPGASLHKFAYNDQGQVRLRAGLPIYECNSRCRCGYDCPNRVVQKGIRYDLCIFRTDDGRGWGVRTLEKIRKNSFVMEYVGEIITSEEAERRGQIYDRQGATYLFDLDYVEDVYTVDAAYYGNISHFVNHSCDPNLQVYNVFIDNLDERLPRIAFFATRTIRAGEELTFDYNMQVDPVDMESTRMDSNFGLAGLPGSPKKRVRIECKCGTESCRKYLF
As to B2, the “Z score of condensed fraction” value was -0.8281.

B3: TBR1 (protein, UniProt Q16650 1-682, looked up)
T-box brain protein 1: MQLEHCLSPSIMLSKKFLNVSSSYPHSGGSELVLHDHPIISTTDNLERSSPLKKITRGMTNQSDTDNFPDSKDSPGDVQRSKLSPVLDGVSELRHSFDGSAADRYLLSQSSQPQSAATAPSAMFPYPGQHGPAHPAFSIGSPSRYMAHHPVITNGAYNSLLSNSSPQGYPTAGYPYPQQYGHSYQGAPFYQFSSTQPGLVPGKAQVYLCNRPLWLKFHRHQTEMIITKQGRRMFPFLSFNISGLDPTAHYNIFVDVILADPNHWRFQGGKWVPCGKADTNVQGNRVYMHPDSPNTGAHWMRQEISFGKLKLTNNKGASNNNGQMVVLQSLHKYQPRLHVVEVNEDGTEDTSQPGRVQTFTFPETQFIAVTAYQNTDITQLKIDHNPFAKGFRDNYDTIYTGCDMDRLTPSPNDSPRSQIVPGARYAMAGSFLQDQFVSNYAKARFHPGAGAGPGPGTDRSVPHTNGLLSPQQAEDPGAPSPQRWFVTPANNRLDFAASAYDTATDFAGNAATLLSYAAAGVKALPLQAAGCTGRPLGYYADPSGWGARSPPQYCGTKSGSVLPCWPNSAAAAARMAGANPYLGEEAEGLAAERSPLPPGAAEDAKPKDLSDSSWIETPSSIKSIDSSDSGIYEQAKRRRISPADTPVSESSSPLKSEVLAQRDCEKNCAKDISGYYGFYSHS
In the case of B3, the “Z score of condensed fraction” value was -0.7739.

B4: TAF9 (protein, UniProt Q8VI33 1-264, looked up)
Transcription initiation …: MESGKMASPKSMPKDAQMMAQILKDMGITEYEPRVINQMLEFAFRYVTTILDDAKIYSSHAKKATVDADDVRLAIQCRADQSFTSPPPRDFLLDIARQRNQTPLPLIKPYSGPRLPPDRYCLTAPNYRLKSLQKKAPAPAGRITVPRLSVGSVSSRPSTPTLGTPTPQTMSVSTKVGTPMSLTGQRFTVQMPASQSPAVKASIPATSTVQNVLINPSLIGSKNILITTNMVSQNTAESANALKRKREDDDDDDDDDDDDDYDNM
Regarding B4, the “Z score of condensed fraction” value is -0.7072.

B5: TADA2L (protein, UniProt O75478 1-443, looked up)
Transcriptional adapter …: MDRLGPFSNDPSDKPPCRGCSSYLMEPYIKCAECGPPPFFLCLQCFTRGFEYKKHQSDHTYEIMTSDFPVLDPSWTAQEEMALLEAVMDCGFGNWQDVANQMCTKTKEECEKHYMKHFINNPLFASTLLNLKQAEEAKTADTAIPFHSTDDPPRPTFDSLLSRDMAGYMPARADFIEEFDNYAEWDLRDIDFVEDDSDILHALKMAVVDIYHSRLKERQRRKKIIRDHGLINLRKFQLMERRYPKEVQDLYETMRRFARIVGPVEHDKFIESHALEFELRREIKRLQEYRTAGITNFCSARTYDHLKKTREEERLKRTMLSEVLQYIQDSSACQQWLRRQADIDSGLSPSIPMASNSGRRSAPPLNLTGLPGTEKLNEKEKELCQMVRLVPGAYLEYKSALLNECNKQGGLRLAQARALIKIDVNKTRKIYDFLIREGYITKG
As to B5, the “Z score of condensed fraction” value was determined as 2.809.

B6: TADA2B (protein, UniProt Q86TJ2 1-420, looked up)
Transcriptional adapter 2-beta: MAELGKKYCVYCLAEVSPLRFRCTECQDIELCPECFSAGAEIGHHRRYHGYQLVDGGRFTLWGPEAEGGWTSREEQLLLDAIEQFGFGNWEDMAAHVGASRTPQEVMEHYVSMYIHGNLGKACIPDTIPNRVTDHTCPSGGPLSPSLTTPLPPLDISVAEQQQLGYMPLRDDYEIEYDQDAETLISGLSVNYDDDDVEIELKRAHVDMYVRKLKERQRRKNIARDYNLVPAFLGKDKKEKEKALKRKITKEEKELRLKLRPLYQFMSCKEFDDLFENMHKEKMLRAKIRELQRYRRNGITKMEESAEYEAARHKREKRKENKNLAGSKRGKEDGKDSEFAAIENLPGFELLSDREKVLCSSLNLSPARYVTVKTIIIKDHLQKRQGIPSKSRLPSYLDKVLKKRILNFLTESGWISRDAS
On to B6, for which the “Z score of condensed fraction” value was -0.4021.

B7: BHLHE41 (protein, UniProt Q9C0J9 1-482, looked up)
Class E basic …: MDEGIPHLQERQLLEHRDFIGLDYSSLYMCKPKRSMKRDDTKDTYKLPHRLIEKKRRDRINECIAQLKDLLPEHLKLTTLGHLEKAVVLELTLKHLKALTALTEQQHQKIIALQNGERSLKSPIQSDLDAFHSGFQTCAKEVLQYLSRFESWTPREPRCVQLINHLHAVATQFLPTPQLLTQQVPLSKGTGAPSAAGSAAAPCLERAGQKLEPLAYCVPVIQRTQPSAELAAENDTDTDSGYGGEAEARPDREKGKGAGASRVTIKQEPPGEDSPAPKRMKLDSRGGGSGGGPGGGAAAAAAALLGPDPAAAAALLRPDAALLSSLVAFGGGGGAPFPQPAAAAAPFCLPFCFLSPSAAAAYVQPFLDKSGLEKYLYPAAAAAPFPLLYPGIPAPAAAAAAAAAAAAAAAAFPCLSSVLSPPPEKAGAAAATLLPHEVAPLGAPHPQHPHGRTHLPFAGPREPGNPESSAQEDPSQPGKEAP
Turning to B7, the “Z score of condensed fraction” value is -0.9569.

B8: BIF1 (protein, UniProt Q9Y371 1-365, looked up)
Endophilin-B1: MNIMDFNVKKLAADAGTFLSRAVQFTEEKLGQAEKTELDAHLENLLSKAECTKIWTEKIMKQTEVLLQPNPNARIEEFVYEKLDRKAPSRINNPELLGQYMIDAGTEFGPGTAYGNALIKCGETQKRIGTADRELIQTSALNFLTPLRNFIEGDYKTIAKERKLLQNKRLDLDAAKTRLKKAKAAETRNSSEQELRITQSEFDRQAEITRLLLEGISSTHAHHLRCLNDFVEAQMTYYAQCYQYMLDLQKQLGSFPSNYLSNNNQTSVTPVPSVLPNAIGSSAMASTSGLVITSPSNLSDLKECSGSRKARVLYDYDAANSTELSLLADEVITVFSVVGMDSDWLMGERGNQKGKVPITYLELLN
On to B8, for which the “Z score of condensed fraction” value is given as -0.08025.

B9: TAF1C (protein, UniProt Q15572 1-869, looked up)
TATA box-binding …: MDFPSSLRPALFLTGPLGLSDVPDLSFMCSWRDALTLPEAQPQNSENGALHVTKDLLWEPATPGPLPMLPPLIDPWDPGLTARDLLFRGGCRYRKRPRVVLDVTEQISRFLLDHGDVAFAPLGKLMLENFKLEGAGSRTKKKTVVSVKKLLQDLGGHQPWGCPWAYLSNRQRRFSILGGPILGTSVASHLAELLHEELVLRWEQLLLDEACTGGALAWVPGRTPQFGQLVYPAGGAQDRLHFQEVVLTPGDNPQFLGKPGRIQLQGPVRQVVTCTVQGESKALIYTFLPHWLTCYLTPGPFHPSSALLAVRSDYHCAVWKFGKQWQPTLLQAMQVEKGATGISLSPHLPGELAICSRSGAVCLWSPEDGLRQIYRDPETLVFRDSSSWRWADFTAHPRVLTVGDRTGVKMLDTQGPPGCGLLLFRLGAEASCQKGERVLLTQYLGHSSPKCLPPTLHLVCTQFSLYLVDERLPLVPMLKWNHGLPSPLLLARLLPPPRPSCVQPLLLGGQGGQLQLLHLAGEGASVPRLAGPPQSLPSRIDSLPAFPLLEPKIQWRLQERLKAPTIGLAAVVPPLPSAPTPGLVLFQLSAAGDVFYQQLRPQVDSSLRRDAGPPGDTQPDCHAPTASWTSQDTAGCSQWLKALLKVPLAPPVWTAPTFTHRQMLGSTELRREEEEGQRLGVLRKAMARGQLLLQRDLGSLPAAEPPPAPESGLEDKLSERLGEAWAGRGAAWWERQQGRTSEPGRQTRRPKRRTQLSSSFSLSGHVDPSEDTSSPHSPEWPPADALPLPPTTPPSQELTPDACAQGVPSEQRQMLRDYMAKLPPQRDTPGCATTPPHSQASSVRATRSQQHTPVLSSSQPLRKKPRMGF
Take B9: the “Z score of condensed fraction” value is recorded as 0.1895.

B10: TBX20 (protein, UniProt Q9UMR3 1-447, looked up)
T-box transcription factor …: MEFTASPKPQLSSRANAFSIAALMSSGGSKEKEATENTIKPLEQFVEKSSCAQPLGELTSLDAHGEFGGGSGSSPSSSSLCTEPLIPTTPIIPSEEMAKIACSLETKELWDKFHELGTEMIITKSGRRMFPTIRVSFSGVDPEAKYIVLMDIVPVDNKRYRYAYHRSSWLVAGKADPPLPARLYVHPDSPFTGEQLLKQMVSFEKVKLTNNELDQHGHIILNSMHKYQPRVHIIKKKDHTASLLNLKSEEFRTFIFPETVFTAVTAYQNQLITKLKIDSNPFAKGFRDSSRLTDIERESVESLIQKHSYARSPIRTYGGEEDVLGDESQTTPNRGSAFTTSDNLSLSSWVSSSSSFPGFQHPQSLTALGTSTASIATPIPHPIQGSLPPYSRLGMPLTPSAIASSMQGSGPTFPSFHMPRYHHYFQQGPYAAIQGLRHSSAVMTPFV
With B10, the “Z score of condensed fraction” value turned out to be 0.6837.

B11: TADA3L (protein, UniProt O75528 1-432, looked up)
Transcriptional adapter 3: MSELKDCPLQFHDFKSVDHLKVCPRYTAVLARSEDDGIGIEELDTLQLELETLLSSASRRLRVLEAETQILTDWQDKKGDRRFLKLGRDHELGAPPKHGKPKKQKLEGKAGHGPGPGPGRPKSKNLQPKIQEYEFTDDPIDVPRIPKNDAPNRFWASVEPYCADITSEEVRTLEELLKPPEDEAEHYKIPPLGKHYSQRWAQEDLLEEQKDGARAAAVADKKKGLMGPLTELDTKDVDALLKKSEAQHEQPEDGCPFGALTQRLLQALVEENIISPMEDSPIPDMSGKESGADGASTSPRNQNKPFSVPHTKSLESRIKEELIAQGLLESEDRPAEDSEDEVLAELRKRQAELKALSAHNRTKKHDLLRLAKEEVSRQELRQRVRMADNEVMDAFRKIMAARQKKRTPTKKEKDQAWKTLKERESILKLLDG
For B11, the “Z score of condensed fraction” value came out at 1.084.
